Assay [1] has as its system progenitor cells in the dentate gyrus. Briefly: BrdU-positive (newborn) cells in the dentate gyrus of hypophysectomized rats. The class given is in vivo, Fisher rats. The source says:
In this example, the density of BrdU-positive cells in the dentate gyrus of hypophysectomized (Hx) rate treated according to the invention with growth hormone (GH), cortisol (C), and L-thyroxine (T) was compared to the density of BrdU-positive cells in the dentate gyrus of hypophysectomized rats treated with cortisol (C), and L-thyroxine (T), and to the density of the same cells for an untreated unoperated control group.
Fisher rats (Harlan Sprague Dawley) which were inact or hypophysectomized at 50 days of age were mainained under standardized conditions of temperature (24-26° C.), humidity (50-60%) and with lights on between 0500 and 1900 h.
(§1) The rats had free access to standard laboratory chow and water. Hormonal treatment started 7-10 days after hyophysectomy. All the hypophysectomized rats were given cortisol phosphate (400 μg/kg/day; Solu-Cortef, Upjohn, Puurs, Belgium) and L-thyroxine (10 μg/kg/day; Sigma, USA) diluted in saline as a daily subcutaneous injection (at 0800 h). Recombinant bovine GH (bGH) was diluted in 0.05 M phosphate buffer, pH 8.6, with 1.6% glycerol and 0.02% sodium azide. GH 1 mg/kg/day was given as one daily subcutaneous injection at 24 h intervals. The treatment continued for seven days. Thereafter the rats were sacrificed and the brains taken out and prepared for immunohistochemistry.
Ten hypophysectomized rats were substituted with only cortisole and L-thyroxine. […] The thymidine analog BrdU is incorporated into the genetic material upon mitotic division whereafter it can be detected immunohistochemically in the resulting cells. […]
(§2) The number of BrdU positive cells in the dentate gyrus of the hippocampus were counted using unbiased counting techniques. […]
For the immunofluorescence, sections were treated for DNA denaturation as described above, followed by incubation in TBS-TS for 30 min. Thereafter the sections were incubated with mouse-anti-Calbindin-D28k, 1:2000 (Sigma) for 16 h at 4° C. and was detected with a Texas red conjugated donkey anti-mouse IgG. BrdU was detected with a FITC conjugated rabbit anti-BrdU antibody. […]

The test system is the same in assay [2]. Kind of assay: BrdU-positive cell proliferation in normal rats treated with GH. It is filed as in vivo, Fisher rats. The note with it: normal animals treated one week with GH, compared with normal controls and with hypophysectomized animals substituted one week then unsubstituted 3 weeks. Here is the method: as §1
Ten hypophysectomized rats were substituted with only cortisole and L-thyroxine. Fifteen hypophysectomized rats were substituted with cortisole, L-thyroxine and GH. […] The thymidine analog BrdU is incorporated into the genetic material upon mitotic division whereafter it can be detected immunohistochemically in the resulting cells. […]
as §2
The total number of BrdU positive cells in the granule cell layer, the subgranular layer and the hilus and their corresponding sample volumes were determined in 7-9 coronal sections, […], that contained the dentate gyrus. […]

B1: GH: Recombinant bovine growth hormone, given 1 mg/kg/day subcutaneously together with cortisol and L-thyroxine (protein, UniProt P01246 27-217, looked up)
Somatotropin: AFPAMSLSGLFANAVLRAQHLHQLAADTFKEFERTYIPEGQRYSIQNTQVAFCFSETIPAPTGKNEAQQKSDLELLRISLLLIQSWLGPLQFLSRVFTNSLVFGTSDRVYEKLKDLEEGILALMRELEDGTPRAGQILKQTYDKFDTNMRSDDALLKNYGLLSCFRKDLHKTETYLRVMKCRRFGEASCAF
In the case of B1, the “rate of proliferation of progenitor cells” value in assay [1] (hypophysectomized animals treated with cortisol and L-thyroxine, quantified after one week of substitution) is “significantly increased”. In addition, the granulae cell neurons entry in assay [1] (hypophysectomized animals, cortisone, thyroxine and GH vs only cortisone and thyroxine, four weeks after the last BrdU injection, FIG. 2) was “significantly more granulae cell neurons”. In assay [1] (hypophysectomized rats, GH 1 mg/kg/day s.c. plus cortisone and thyroxine, after 7 days, compared to only cortisone and thyroxine, FIG. 1), the “number of newborn cells in the dentate gyrus” value was “significantly increased”. Further, the proliferation entry in assay [2] was “increased”.

(Values after patent publication US6797264B1, “Medicinal product and method for treatment of conditions affecting neural stem cells or progenitor cells” (Cellartis AB, priority 1998, dated 2004).)
